{"source": "patent US20240287161A1", "about": "(NATIONAL UNIVERSITY CORPORATION TOTTORI UNIVERSITY, published 2024)", "binders": {"B1": {"name": "NT-193 (recombinant human IgG1/kappa antibody) (antibody, V domains shown)", "VH": "EVQLQQWGAGLLKPSETLSLTCAVYGGSFSGYYWSWIRQPPGKGLEWIGEINHSGSTNYNPSLKSRVTISVDTSKNQFSLKLSSVTAADTAVYYCARGWDLDYYYGMDVWGQGTTVTVSS", "VL": "DIRMTQSPSAMSASVGDRVTVTCRASQGIGNYLAWFQLKPGKVPKRLIYAASSLQSGVPARFSGGGSGTEFTLTISSLQPEDFATYYCLQHGFLPWTFGQGTKLEIK"}, "B2": {"name": "NT-193, human IgG3 subclass (antibody, V domains shown)", "VH": "B1 VH", "VL": "B1 VL"}, "B3": {"name": "NT-108 (recombinant human IgG1/kappa antibody) (antibody, V domains shown)", "VH": "EVQLQQSGPGLVKPSQTLSLTCSISGDSVSSNSAAWNWIRQSPSRGLEWLGRTYYRSKWYNDYAGTVKSRIAINPDTSKNQFSLHLNSVTPEDTAVYFCARVISVAGYAFDIWGQGTMVTVSS", "VL": "EIVLTQSPGTLSLSPGERATLSCRASQSVSSTFLAWYQQKPGQAPRLLIYGASYMATGIPDRFSGSGSGTDFTLTISRLEPEDFAVYYCQQYGSSLTFGGGTKLEIK"}}, "key": {"[1]": {"target": "T1, MERS-CoV trimeric S protein (amino acids 13-1296) with T4 foldon, histidine tag and strep-tag (MERS-CoV, UniProt K9N5Q8 16-1293)", "assay": "ELISA on coated S-trimeric antigen, anti-human IgG-HRP [Human IgG1, NT-193]"}, "[2]": {"target": "T1, MERS-CoV trimeric S protein (amino …)", "assay": "ELISA on coated S-trimeric antigen, anti-human IgG-HRP [Human IgG3, NT-193]"}, "[3]": {"target": "T1, MERS-CoV trimeric S protein (amino …)", "assay": "ELISA on coated S-trimeric antigen, anti-human IgG-HRP [Human IgG1, NT-108]"}}}
{"binder": "B1", "values": [{"measurement": "binding result", "setting": "[1]", "result": "no binding (tested: 1000 ng/ml)"}]}
{"binder": "B2", "values": [{"measurement": "binding result", "setting": "[2]", "result": "no binding (tested: 1000 ng/ml)"}]}
{"binder": "B3", "values": [{"measurement": "binding result", "setting": "[3]", "result": "no binding (tested: 1000 ng/ml)"}]}
